Legend:
[1] = tested on: T1, In-active peptide (NH2-Cys-Lys-Pro-Val-Lys-TAMRA, SEC ID NO: 3)
T1 sequence: CKPVK

[2] = tested on: T2, Pro-active peptide (NH2-Cys-Lys-Arg-Val-Lys-TAMRA, SEQ ID NO: 2)
T2 sequence: CKRVK

Trypsin (13.000-20.000 units/mg)
fluorescence emission spectra of the one-colour QD540@SiO2 system after incubation with trypsin [1]: the control sample with the “in-active” QD540@SiO2 system, as expected, did not show any significant change in the fluorescence emission
fluorescence emission of QD660@SiO2@QD540@SiO2 nanoparticles at 25 µg/L versus 350 µg/L trypsin [2]: Increasing the enzyme concentration led to faster recovery of the original emission at 540 nm
fluorescence emission spectra of the one-colour QD540@SiO2 system after incubation with trypsin (loss of FRET on peptide cleavage) [2]: The spectroscopic profiles further demonstrated the existence of FRET processes between the QD540@SiO2 nanospheres and the “pro-active” TAMRA-labelled peptide
ratio of PL emission peaks I540/I660 during enzymatic digestion for 120 minutes at 25-350 µg/L trypsin [2]: There was a direct relationship between the enzymatic digestion rate and the enzyme concentration

Reference: US20160139137
